Series [1] can be described thus: Enzyme substrate specificity on nucleotide substrates (malachite green assay). The format is biochemical. As to conditions: FIG. 3; bis-Tris pH 6.5 (CRC21323, CRC21322 acetate pH 4.5; CD39 pH 7). How it is done:
Enzyme activity towards ATP or ADP at pH 3 to 9: The ability of candidate enzymes to degrade ATP or ADP to AMP and free phosphate (Pi) was measured using a standard malachite green phosphate detection kit (Sigma Aldrich cat no. MAK307). The enzyme reactions were carried out in 96-well plates with a total volume of 150 μL and contained 250 μM of a substrate, 50 mM of a buffer, 5 mM CaCl2, and a variable concentration of enzyme. The substrate was ATP or ADP. The buffer was glycine (pH 3), acetate (pH 4, 4.5, 5), bis-Tris (pH 5.5, 6, 6.5), or Tris (pH 7, 8, 9). […] The enzyme concentration was determined by the absorbance at 280 nm and using the predicted molecular weight and molar extinction coefficient to calculate the concentration. […] The malachite green reaction mixture was allowed to rest at room temperature for 45-60 min and the absorbance at 620 nm was measured. Lastly, the absorbance of the phosphate standards were used to convert the absorbance readings of each sample into phosphate concentrations and the negative control was subtracted from each reaction.
Enzyme substrate specificity: The activity of the enzymes on different nucleotide substrates was tested using the malachite green assay. […] After converting the absorbance to phosphate concentration, the activity of each enzyme was set relative to the activity on ATP.

Series [2] is described as follows: ATPase activity at 0.05 ppm enzyme on 0.1 mM ATP (absorbance 620 nm). The format is biochemical. As to conditions: for Activity on ATP (absorbance at 620 nm, blank subtracted), pH 5.0: 50 mM IVIES buffer pH 5; for Activity on ATP (absorbance at 620 nm, blank subtracted), pH 6.0: 50 mM IVIES buffer pH 6. A digest of the protocol: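 Enzyme at 0.05 ppm with 0.1 mM ATP in 50 mM MES buffer, pH 6 and pH 5, with 5 mM CaCl2; reaction stopped after 5 min. Released phosphate detected by malachite green at 620 nm, water blank subtracted.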

The test system of series [3] is Acute DSS colitis in C57BL/6 mice. The experiment in a line: Chemically-induced DSS colitis mouse model, disease activity index (DAI). The format is in vivo. The text has this: Acute DSS colitis was induced in C57BL/6 mice according to the previously published method with minor modification (Sann et al., 2013, Life Sci. April 9; 92(12):708-18). The mice were fed 3% (w/v) DSS dissolved in the drinking water on day one to day five. Fresh DSS solution was provided every other day. Control mice (Group 1) drank only distilled water. Groups 4 to 8 received candidate acid phosphatase enzymes by oral gavage and groups 9 to 12 received enzymes via catheter (Table 2). DAI was calculated as described earlier (Cooper et al., 1993, Laboratory investigation; a journal of technical methods and pathology. 69(2):238-49).

For series [4], the system named is commensals from HMT in Apc/minJ mice. The experiment in a line: Engraftment of human microbiota transplant (HMT) commensals, 16S sequencing of day 13 fecal samples. Conditions: group 6 (Ab + HMT + Enz) compared with group 5 (Ab + HMT); FIG. 11. The format is in vivo. How it is done:
Apc/minJ mice have a mutated adenomatous polyposis coli gene and are more prone to develop colitis and tumors. In this Example, and using this model, 6-7 weeks old mice were subjected to an antibiotics cocktail of vancomycin, ampicillin, and neomycin (1 mg/mL) for 7 days in drinking water in order to induce a gut inflammatory response. Control mice (Groups 1 and 2) drank only distilled water. Groups 4 and 6 received CRC22110 ay 10 μg/dose enzyme by oral gavage and groups 5 and 6 received human microbiota transplant (HMT) by gavage. HMT was prepared by inoculating fecal sample from a healthy human donor in 20 ml of YCFAC media. Culture was grown anaerobically for 16 hrs at 37° C. Cells were collected by centrifugation and washed with PBS. Cells were resuspended in 10% glycerol and cell numbers were estimated by plating on YCFAC agar plates. Promotion of Engraftment: Fecal samples were collected from each mouse per day. Day 13 fecal samples were processed and 16S sequencing was done to evaluate the structure of microbiome. Group 5 was compared with group 6 and engraftment of HMT was evaluated. […]

Series [5] in a line: Relative activity on ATP of CRC22110 single-site variants. The format is biochemical. Conditions: in comparison to CRC22110 wild type.
Series [6] can be described thus: Enzyme acid resistance: residual activity on ATP after incubation at pH 2. The format is physicochemical. As to conditions: 60 min in acid buffer, 50 mM glycine, 5 mM CaCl2; FIG. 4. How it is done:
Enzyme acid resistance: Candidate enzymes were tested for their ability to resist inactivation at low pH by incubating the enzymes in an “acid buffer” of 50 mM glycine and 5 mM CaCl2 at pH 2 for 15 or 60 minutes and comparing their activity to enzymes in a “control buffer” at their optimum pH. The optimum buffer for CRC21323 and CRC21322 was 50 mM acetate pH 4.5 with 5 mM CaCl2. The optimum buffer for all other enzymes was 50 mM bis-Tris pH 6.5 with 5 mM CaCl2. After incubating in the acidic glycine buffer, the enzyme mixtures were neutralized by mixing with an equal volume of neutralization buffer. The neutralization buffer for CRC21323 and CRC21322 was 100 mM acetate and 10 mM CaCl2 at pH 4.5. The neutralization buffer for the other enzymes was 100 mM bis-Tris and 10 mM CaCl2 at pH 6.5. Next, the acid-stressed and control enzyme were tested for their ability to release phosphate from ATP using the reaction conditions and malachite green assay as described in with the following changes. The only substrate tested was ATP. CRC21323 and CRC21322 were tested with a buffer of acetate pH 4.5, but all other enzymes were tested in a buffer of bis-Tris pH 6.5. After determining the concentration of phosphate in each reaction, the residual activity of each enzyme after 15 or 60 min incubation in the “acid buffer” was calculated by dividing the acid-stressed by the control enzyme phosphate concentrations for each enzyme.

The nature of series [7]: Enzyme activity towards ATP at pH 3 to 9 (malachite green phosphate detection). The format is biochemical. As to conditions: FIG. 1; 250 μM ATP, 5 mM CaCl2, pH 3 to 9. The procedure: (§1) Enzyme activity towards ATP or ADP at pH 3 to 9: The ability of candidate enzymes to degrade ATP or ADP to AMP and free phosphate (Pi) was measured using a standard malachite green phosphate detection kit (Sigma Aldrich cat no. MAK307). The enzyme reactions were carried out in 96-well plates with a total volume of 150 μL and contained 250 μM of a substrate, 50 mM of a buffer, 5 mM CaCl2, and a variable concentration of enzyme. The substrate was ATP or ADP. The buffer was glycine (pH 3), acetate (pH 4, 4.5, 5), bis-Tris (pH 5.5, 6, 6.5), or Tris (pH 7, 8, 9). The concentration of enzyme varied from about 1 μg/mL to 1 ng/mL and was adjusted based on the activity of the enzyme so that the amount of phosphate released during the assay was with the dynamic range of the assay (5-100 μM phosphate). The enzyme concentration was determined by the absorbance at 280 nm and using the predicted molecular weight and molar extinction coefficient to calculate the concentration. […] The malachite green reaction mixture was allowed to rest at room temperature for 45-60 min and the absorbance at 620 nm was measured. Lastly, the absorbance of the phosphate standards were used to convert the absorbance readings of each sample into phosphate concentrations and the negative control was subtracted from each reaction.

A further series concerns Apc/minJ mice. As to the kind of experiment: Antibiotic-induced gut inflammation in Apc/minJ mice: DAI, colon length, histopathology. The format is in vivo. Conditions: antibiotics cocktail, 10 μg/dose oral gavage. The procedure: Apc/minJ mice have a mutated adenomatous polyposis coli gene and are more prone to develop colitis and tumors. In this Example, and using this model, 6-7 weeks old mice were subjected to an antibiotics cocktail of vancomycin, ampicillin, and neomycin (1 mg/mL) for 7 days in drinking water in order to induce a gut inflammatory response. Control mice (Groups 1 and 2) drank only distilled water. Groups 4 and 6 received CRC22110 ay 10 μg/dose enzyme by oral gavage and groups 5 and 6 received human microbiota transplant (HMT) by gavage. HMT was prepared by inoculating fecal sample from a healthy human donor in 20 ml of YCFAC media. Culture was grown anaerobically for 16 hrs at 37° C. Cells were collected by centrifugation and washed with PBS. Cells were resuspended in 10% glycerol and cell numbers were estimated by plating on YCFAC agar plates.
Disease Severity: Disease severity was scored using a clinical disease activity index (DAI), calculated as previously described using the following parameters: stool consistency, presence or absence of fecal blood and weight loss (Cooper et al., 1993, Laboratory investigation; a journal of technical methods and pathology. 69(2):238-49). The mice were killed on days 12 and 16, colons were measured, and the tissue was prepared for histopathological studies. The colon was fixed in 10% formaldehyde-saline. Hematoxylin and eosin stain (HE)-stained sections are graded based on a scoring system adapted from Burich et al., 2001, Am. J. Physiol. Gastrointest. Liver Physiol. 281:G764-G778 and Hausmann et al., 2007, Clin Exp Immunol. 2007 May; 148(2):373-81. Histology scoring is performed, and a combined score of inflammatory cell infiltration and tissue damage is determined for all the groups.

A short description of series [8]: Enzyme activity towards ADP at pH 3 to 9 (malachite green phosphate detection). The format is biochemical. As to conditions: FIG. 2; 250 μM ADP, 5 mM CaCl2, pH 3 to 9. The procedure: as §1

B1: CRC22105: GDA1/CD39 family enzyme, accession WP_045094910.1, SEQ ID NO:8 (protein, listed as Legionella fallonii)
chain: ENASCDKHQCITVIDAGSTGSRVHIYAYDLDETNTPTNINEIWTKKIKPGFATIDPNYNTIDAYLTILLSGAPTQQGPVYFYATAGMRLLPASKQKLYYQELQRWFTQQTQWHFVEAKTITGNEEALYDWLSVNYHLGTLKSVQNKAIGVMDMGGASVQIVFPIQKNENIHGRSQVELNIYGQRINLFVHSFLGLGQTEMSHQFLNSTSCFTNDYPLPDGEMGLGNALSCEQEVSSLMNAVHGVSKTIQPVLAANSVDSWYAIGGLTNLADNKLFNFVNGQLTNQSLIEQADSQICHQQWSKLDAQYPNDDYIYGYCLFSSYFYALMVDGYGISPEQTVNYISPSINLDWTKGVVLHHLS
Regarding B1, the “activity on different nucleotide substrate relative to ATP” value in [1] is “noticeably reduced activity on UTP/UDP and CTP/CDP”. For the same molecule, in series [2], the “Activity on ATP (absorbance at 620 nm, blank subtracted), pH 5.0” value was 0.26 and the “Activity on ATP (absorbance at 620 nm, blank subtracted), pH 6.0” value is reported as 0.28.

B2: CRC22110: GDA1/CD39 family enzyme, accession EKE69473.1, SEQ ID NO:9 (predicted mature), SEQ ID NO:1 (protein, listed as Gallaecimonas xiamenensis)
chain: ADKPACRAVFDAGSSGTRLFLYVQQEGGWQPWPGAKLGALADPVRQHQGPKAMAALAADLANSLEALRQDGPTNSEGQPRWQGFDWQQACRLQSVSVLATAGMRLAEQQDPVASVALWQEVQQALAGLLGPAVAIDARTLTGFEEGFYAWLAARARLGRSDMGIVEMGGASSQVAFPCPACDRADDAVQQVRLEGQTLDFYSYSFLGLGQDEAPKVLGVPHACRYGAGVKDPNWQLGQCQAQLPLTLGRALKDPYNFQGQGQGGYRQVPTEKAGVKDWLLTGAFQYNTPDQLDSCCLNQGQCYQPSTACFRVAYLPLYLDSLGVDPHSPDLDVSWTLGAVLCRNEQCLAPSKPPCRWRKAGCLAPSVGDGRPEGRPGQQPGGVQHRQH
Regarding B2, in series [3] (catheterized mice, test items via cecum BID, FIG. 6A, 6B), the “reduction in DAI score compared to control” value amounted to 47%. Besides, the “DAI score compared to CRCO2733” value in series [3] (non-catheterized mice, oral gavage BID, FIG. 5A, 5B) was “significant reduction”. In [2], the “Activity on ATP (absorbance at 620 nm, blank subtracted), pH 5.0” value is on record as 0.60 and the “Activity on ATP (absorbance at 620 nm, blank subtracted), pH 6.0” value came out at 0.37. Also, in series [4], the “engraftment of commensals from HMT” value is recorded as “better engraftment of several commensals from HMT”. The “Relative activity (%) on ATP” value in series [5] came out at 100%. Moreover, the “residual activity after incubation at pH 2” value in series [6] is recorded as “greatest resistance”. Also, the “specific activity on ATP over a range of pHs” value in series [7] is “most active enzyme”. Further, the “improvement in DAI score compared to control” value in the series with Apc/minJ mice (FIG. 8) is listed as 25%. The “colon length compared to control” value in the series with Apc/minJ mice (FIG. 9) is “significant improvement”. Moreover, the “focal hyperplasia in the colon (histopathologic analysis)” value in the series on Apc/minJ mice (FIG. 10) is recorded as “absent”. For the same molecule, in series [8], the “specific activity on ADP over a range of pHs” value is “most active enzyme”.

The values above are taken from US20240124857A1, “COMPOSITION FOR GUT HEALTH” (DUPONT NUTRITION BIOSCIENCES APS, priority 2021, published 2024).
